Columns and labels:
Test in all cases: Crosslinking/co-immunoprecipitation/mass spectrometry (TMT quantitative proteomics) to identify irisin receptors
Type in all cases: binding
[1] = target: T1, MLO-Y4 cell surface proteins (Mus musculus, UniProt Q99LC5); conditions: co-precipitated protein Etfa (ETFA_MOUSE)
T1 construct: endogenous in cells; host or cells: MLO-Y4
T1 sequence (Q99LC5 20-333): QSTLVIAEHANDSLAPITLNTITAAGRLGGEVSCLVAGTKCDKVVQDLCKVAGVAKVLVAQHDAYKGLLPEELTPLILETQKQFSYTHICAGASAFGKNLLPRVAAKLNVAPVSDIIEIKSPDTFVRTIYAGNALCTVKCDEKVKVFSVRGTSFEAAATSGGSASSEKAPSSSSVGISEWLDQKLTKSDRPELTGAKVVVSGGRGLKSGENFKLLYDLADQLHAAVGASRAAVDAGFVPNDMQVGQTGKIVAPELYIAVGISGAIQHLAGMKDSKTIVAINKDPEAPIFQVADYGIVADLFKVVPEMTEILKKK
Method in brief: (§1)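 Mouse MLO-Y4 cells were switched to serum-free FreeStyle medium for 4 h, chilled, then exposed to 10 nM His-tagged irisin (or adipsin as control) for 20 min. Cells were crosslinked with 1.5 mM DTSSP (30 min, ice), and bound proteins were pulled down on Ni-NTA and eluted with 250 mM imidazole. Eluates were separated by SDS-PAGE, trypsin-digested in gel, TMT 6-plex labelled and quantified by MS3-based LC-MS/MS on an Orbitrap Fusion Lumos.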

[2] = target: T2, MLO-Y4 cell surface proteins (Mus musculus, UniProt P97360); conditions: co-precipitated protein Etv6 (ETV6_MOUSE)
T2 construct: endogenous in cells; host or cells: MLO-Y4
T2 sequence (P97360 1-485): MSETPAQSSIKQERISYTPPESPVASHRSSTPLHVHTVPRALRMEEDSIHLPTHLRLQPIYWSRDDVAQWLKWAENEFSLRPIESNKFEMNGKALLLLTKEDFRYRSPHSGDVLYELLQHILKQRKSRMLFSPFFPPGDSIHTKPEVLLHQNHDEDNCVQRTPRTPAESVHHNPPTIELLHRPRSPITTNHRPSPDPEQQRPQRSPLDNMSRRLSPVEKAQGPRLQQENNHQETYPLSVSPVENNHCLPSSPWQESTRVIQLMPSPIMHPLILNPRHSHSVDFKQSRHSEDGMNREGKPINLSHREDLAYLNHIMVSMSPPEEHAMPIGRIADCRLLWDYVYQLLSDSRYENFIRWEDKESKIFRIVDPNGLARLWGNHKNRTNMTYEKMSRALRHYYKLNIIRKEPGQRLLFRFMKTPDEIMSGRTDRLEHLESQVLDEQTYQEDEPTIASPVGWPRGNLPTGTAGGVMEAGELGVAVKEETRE
Method in brief: as §1

[3] = target: T3, MLO-Y4 cell surface proteins (Mus musculus, UniProt Q921N7); conditions: co-precipitated protein Tmem70 (TMM70_MOUSE)
T3 construct: endogenous in cells; host or cells: MLO-Y4
T3 sequence (Q921N7 78-253): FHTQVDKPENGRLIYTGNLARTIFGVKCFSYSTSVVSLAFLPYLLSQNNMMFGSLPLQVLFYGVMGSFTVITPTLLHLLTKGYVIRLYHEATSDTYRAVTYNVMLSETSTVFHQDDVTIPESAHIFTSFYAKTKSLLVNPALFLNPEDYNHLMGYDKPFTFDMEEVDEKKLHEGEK
Method in brief: as §1

Substance: adipsin
- TMT signal-to-noise ratio [1]: 80.1458
- TMT signal-to-noise ratio [2]: 137.108
- TMT signal-to-noise ratio [3]: 88.4078
